“And” between values parts separate entries of the source, which are not always exact repeats. Equal values may be shown once. Read-outs that look alike come from different tables or passages of the source.

One may read the stoichiometry N as the number of molecules, sites or subunits per partner or assembly.

B1: Bacillus subtilis clamp-loader τ subunit (natural protein, UniProt P09122 1-563, looked up)
chain: MSYQALYRVFRPQRFEDVVGQEHITKTLQNALLQKKFSHAYLFSGPRGTGKTSAAKIFAKAVNCEHAPVDEPCNECAACKGITNGSISDVIEIDAASNNGVDEIRDIRDKVKFAPSAVTYKVYIIDEVHMLSIGAFNALLKTLEEPPEHCIFILATTEPHKIPLTIISRCQRFDFKRITSQAIVGRMNKIVDAEQLQVEEGSLEIIASAADGGMRDALSLLDQAISFSGDILKVEDALLITGAVSQLYIGKLAKSLHDKNVSDALETLNELLQQGKDPAKLIEDMIFYFRDMLLYKTAPGLEGVLEKVKVDETFRELSEQIPAQALYEMIDILNKSHQEMKWTNHPRIFFEVAVVKICQTSHQSAADLPEVDMLMKKIQQLEQEVERLKTTGIKAAAESPKKEAPRVPKGGKSNYKAPVGRIHEILKEATRPDLDLLRNSWGKLLAHLKQQNKVSHAALLNDSEPVAAGSAAFVLKFKYEIHCKMVAEDNNGVRTNLEQILESMLGKRMDLIGVPEAQWGKIREEFLEDHQQENEGSNEPAEEDPLIAEAKKLVGADLIEIKD

Holding throughout (assay): native MS
Series [1] concerns the target Bacillus subtilis clamp-loader δ subunit (yqeN) (Bacillus subtilis) (UniProt P54459).
Series [2] deals with the molecule itself.
Series [3] concerns the target T1, Bacillus stearothermophilus DnaB helicase (Bacillus stearothermophilus, UniProt Q9X4C9 1-454).
T1 sequence (looked up): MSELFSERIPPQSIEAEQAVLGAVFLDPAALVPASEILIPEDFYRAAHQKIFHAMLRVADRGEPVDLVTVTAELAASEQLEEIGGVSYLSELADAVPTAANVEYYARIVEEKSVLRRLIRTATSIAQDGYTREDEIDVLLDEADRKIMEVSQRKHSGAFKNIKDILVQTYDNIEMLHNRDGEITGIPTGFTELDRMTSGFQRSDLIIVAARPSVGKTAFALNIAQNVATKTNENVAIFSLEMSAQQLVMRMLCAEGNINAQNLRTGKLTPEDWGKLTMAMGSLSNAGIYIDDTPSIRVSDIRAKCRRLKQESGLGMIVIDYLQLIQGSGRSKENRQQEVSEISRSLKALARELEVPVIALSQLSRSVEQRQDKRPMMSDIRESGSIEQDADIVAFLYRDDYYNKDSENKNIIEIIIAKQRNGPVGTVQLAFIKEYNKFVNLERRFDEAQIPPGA

Series [4] deals with the molecule itself. This is another data set of the same source.
The target of series [5] is B1.
The target in series [6] is B1. The source holds these as a separate data set.
The target of series [7] is B1. The source holds these as a separate data set.
Series [8] concerns the molecule itself. This is another data set of the same source.

For “Bacillus subtilis clamp-loader δ subunit (yqeN) (from UniProt P54459 1-347) (natural protein)”, the stoichiometry N (subunits in the oligomer) in series [1] was 2.

B1: the “stoichiometry N” value in “native MS [2]” was 3 subunits in the oligomer and 2 subunits in the oligomer and 5 subunits in the oligomer; in series [3], 3 τ per DnaB hexamer; in the series “native MS [4]” it was 4 subunits in the oligomer.

B2: Bacillus subtilis clamp-loader δ subunit (yqeN) (natural protein, UniProt P54459 1-347, looked up)
chain: MVFDVWKSLKKGEVHPVYCLYGKETYLLQETVSRIRQTVVDQETKDFNLSVFDLEEDPLDQAIADAETFPFMGERRLVIVKNPYFLTGEKKKEKIEHNVSALESYIQSPAPYTVFVLLAPYEKLDERKKLTKALKKHAFMMEAKELNAKETTDFTVNLAKTEQKTIGTEAAEHLVLLVNGHLSSIFQEIQKLCTFIGDREEITLDDVKMLVARSLEQNIFELINKIVNRKRTESLQIFYDLLKQNEEPIKIMALISNQFRLILQTKYFAEQGYGQKQIASNLKVHPFRVKLAMDQARLFSEEELRLIIEQLAVMDYEMKTGKKDKQLLLELFLLQLLKRNEKNDPHY
For the molecule B2, the “stoichiometry N” value in series [5] was 3 τ per δ; in series [6], 2 τ per δ.

B3: Bacillus subtilis clamp-loader δ′ subunit (holB) (natural protein, UniProt P37540 1-329, looked up)
chain: MAISWKEMNELQPRVMKLLYNSIEKDRLSHAYLFEGKKGTGKLDAALLLAKSFFCLEGGAEPCESCRNCKRIESGNHPDLHLVQPDGLSIKKAQIQALQEEFSKTGLESHKKLYIISHADQMTANAANSLLKFLEEPNKDTMAVLITEQPQRLLDTIISRCQTLPFQPLQPKAIEDRLIEQDVSPHMARLLANMTNNVAEAVELSRNDEFAESRAKVIKLYEVLHQRKGHAFFFIQDQWMPFFKEKTHQEMGLDMLLLIYRDVLSIQIGNEDKLIYQDLFQSIKQHALQSTQQSVTNQILAVLEAKKRLHSNVNVQGLMEHLVLMLQEG
Turning to B3, the “stoichiometry N” value was 3 τ per δ′ and 2 τ per δ′ in series [7]; 2 subunits in the oligomer in “native MS [8]”.
